Data from patent US6593099B2, “Regulation of human S-acyl fatty acid synthase thioesterase-like enzyme” (Bayer Aktiengesellschaft, priority 2000, dated 2003).

Legend:
[1] = molecular target: T1, S-acyl fatty acid synthase thioesterase-like enzyme short (long) polypeptide (Homo sapiens, UniProt Q9NV23); experiment: Comparison of continuous and discontinuous assay format (pre-incubation with DTNB); type: biochemical; set-up: His6; made in house; host or cells: Sf9 insect cells, baculovirus; settings: DTNB at the concentrations used in the continuous assay format
Experimental: S-acyl fatty acid synthase thioesterase-like enzyme short (long) polypeptide was incubated in the presence or absence of DTNB, and the A412 was monitored until a baseline was achieved. Substrate (palmitoyl CoA) was then added to each incubation and was incubated for an additional 50 minutes. After this period of time, A412 of each sample was compared to determine whether the pre-incubation of enzyme with DTNB inactivates the enzyme. Enzyme without substrate was used as a blank for the discontinuous assay.

[2] = molecular target: T2, S-acyl fatty acid synthase thioesterase-like enzyme short (long) polypeptide (coolEST49) (Homo sapiens, UniProt Q9NV23); experiment: Discontinuous DTNB thioesterase activity / inhibition assay with palmitoyl CoA; type: biochemical; settings: 1 mM AEBSF
T2 construct: 6xHis (N); made in house; host or cells: E. coli BL21 (DE3), pET-28a
Experimental: Activity of both protein peaks was assayed using an optimized discontinuous assay format. Reaction mixture was 100 mM Tris (pH 8.0), 100 nM coolEST49,±0.1 mM palmitoyl CoA in a volume of 100 μL. The mixture was allowed to incubate at room temperature for 3 hours. After incubation, 150 μL of developer mixture (0.42 mM DTNB in 100 mM Tris) was added, and the absorbance at 412 nm was measured using a 96-well plate reader, using samples without palmitoyl CoA as blanks.
Activity of S-acyl fatty acid synthase thioesterase-like enzyme short (long) polypeptide from the anion exchange column was assayed and compared to that of the eluate from the Ni-NTA column step. An attempt was also made at inhibiting S-acyl fatty acid synthase thioesterase-like enzyme short (long) polypeptide with either DEPC (7 mM) or AEBSF (1 mM).

[3] = molecular target: T1, S-acyl fatty acid synthase thioesterase-like enzyme short (long) polypeptide; experiment: Continuous DTNB assay, kinetics and substrate searching; settings: Batch 1 from baculovirus
Experimental: (§1) A continuous assay format was used to get kinetic information on this preparation of S-acyl fatty acid synthase thioesterase-like enzyme short (long) polypeptide, using the same conditions as with the discontinuous assay, except with this format, developer was added to enzyme until a flat signal was achieved, then the reaction was started by the addition of substrate. Along with palmitoyl CoA, the other substrates assayed were acetyl CoA, octanoyl CoA, decanoyl CoA, and lauroyl CoA.
(§2) S-acyl fatty acid synthase thioesterase-like enzyme short (long) polypeptide activity was assayed in the continuous format as described.

[4] = test system: CCCCCCCC(=O)SCCNC(=O)CCNC(=O)[C@H](O)C(C)(C)COP(=O)(O)OP(=O)(O)OC[C@H]1O[C@@H](n2cnc3c(N)ncnc32)[C@H](O)[C@@H]1OP(=O)(O)O; experiment: purified protein, by the assay type; settings: other: Batch 1 from baculovirus, continuous assay
Experimental: as §1, §2

[5] = test system: CCCCCCCCCC(=O)SCCNC(=O)CCNC(=O)[C@H](O)C(C)(C)COP(=O)(O)OP(=O)(O)OC[C@H]1O[C@@H](n2cnc3c(N)ncnc32)[C@H](O)[C@@H]1OP(=O)(O)O; experiment: purified protein, by the assay type; settings: other: Batch 1 from baculovirus, continuous assay
Experimental: as §1, §2

[6] = test system: CCCCCCCCCCCC(=O)SCCNC(=O)CCNC(=O)[C@H](O)C(C)(C)COP(=O)(O)OP(=O)(O)OC[C@H]1O[C@@H](n2cnc3c(N)ncnc32)[C@H](O)[C@@H]1OP(=O)(O)O; experiment: purified protein, by the assay type; settings: other: Batch 1 from baculovirus, continuous assay
Experimental: as §1, §2

[7] = test system: CCCCCCCCCCCCCCCC(=O)SCCNC(=O)CCNC(=O)[C@H](O)C(C)(C)COP(=O)(O)OP(=O)(O)OC[C@H]1O[C@@H](n2cnc3c(N)ncnc32)[C@H](O)[C@@H]1OP(=O)(O)O; experiment: purified protein, by the assay type; settings: continuous assay
Experimental: as §1, §2

[8] = other: Batch 1 from baculovirus

T1 sequence (Q9NV23 whole entry): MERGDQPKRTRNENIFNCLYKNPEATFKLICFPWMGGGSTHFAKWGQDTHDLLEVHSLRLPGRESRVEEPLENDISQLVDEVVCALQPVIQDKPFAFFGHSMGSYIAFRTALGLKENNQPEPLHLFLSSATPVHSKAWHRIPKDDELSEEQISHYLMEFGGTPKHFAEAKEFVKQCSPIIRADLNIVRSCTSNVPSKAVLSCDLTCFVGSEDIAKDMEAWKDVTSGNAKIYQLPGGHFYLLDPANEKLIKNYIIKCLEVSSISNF
T2 sequence (Q9NV23 whole entry): as above

Q: `O=C(O)c1cc(SSc2ccc([N+](=O)[O-])c(C(=O)O)c2)ccc1[N+](=O)[O-]` [DTNB, 5,5′-dithiobis(2-nitrobenzoic acid)] was tested. Which “Inactivation of the enzyme” value [1] did it give?
A: 60%

Q: `Cl.NCCc1ccc(S(=O)(=O)F)cc1` [AEBSF, 4-(2-Aminoethyl)Benzenesulfonyl Fluoride Hydrochloride] was tested. Which “Inhibition of S-acyl fatty acid synthase thioesterase-like enzyme short (long) polypeptide activity” value [2] did it give?
A: inhibited

Q: Which results are given for `CC(=O)SCCNC(=O)CCNC(=O)[C@H](O)C(C)(C)COP(=O)(O)OP(=O)(O)OC[C@H]1O[C@@H](n2cnc3c(N)ncnc32)[C@H](O)[C@@H]1OP(=O)(O)O` [Acetyl CoA]?
A: Km [3]: immeasurable; kcat ([3]; footnote: 1.0 = 23 mOD/min): immeasurable

Q: Which results are given for “S-acyl fatty acid synthase thioesterase-like enzyme short (long) polypeptide (Homo sapiens)”?
A: Km [4]: 12,400 μM; kcat [4]: 0.115 s⁻¹; Km [5]: 856.1 µM; kcat [5]: 0.0467 s⁻¹; Km [6]: 76.7 µM; kcat [6]: 0.0167 s⁻¹; Km [7, 8]: 5.1 µM; kcat [7, 8]: 0.0167 s⁻¹; Km ([7]; other: Batch 2 from baculovirus): 2.4 µM
